Experimental data reported in paper PMC6224480, “Insights into Kinesin-1 Activation from the Crystal Structure of KLC2 Bound to JIP3” (Structure(London, England:1993), 2018).

Legend:
[1] = system: KLC2^TPR-myc Arg^312Glu (R312E); assay: ITC of Trp-JIP3^LZ into R312E KLC2^TPR-myc; assay type: binding, murine
Excerpt: The KLC2^TPR construct used in this work comprised murine KLC2 residues 191-480, which is similar to those used in previous studies ([Nguyen et al., 2017], [Zhu et al., 2012]) but with a slightly longer N-terminal region to include residues 191-194, which are very highly conserved in Bilaterian KLCs. To construct the pMW-His6-SUMO-KLC2^TPR vector, the sequence encoding KLC2^TPR (residues 191-480) was amplified by PCR from a murine template ([Dodding et al., 2011]) and cloned into the NotI/EcoRI sites of pMW his-SUMO. […]
The Trp-JIP3^LZ protein used for CD and ITC experiments was prepared as described above for the JIP3^LZ, with the following modifications. […] The Trp-JIP3^LZ and KLC2^TPR-myc samples used in the fluorescence anisotropy-based binding competition assays were prepared as for those used in the CD and ITC studies, but the final size-exclusion step was performed in 100 mM NaCl, 25 mM HEPES, 5mM MgCl2, 1 mM TCEP (final pH 7.5).
(§1) To study binding of the Trp-JIP3^LZ and FITC-CSTN-WD2 peptide to wild-type and mutant KLC2^TPR-myc, the recombinant proteins were prepared by size exclusion chromatography in 0.1 M NaCl, 25 mM HEPES, 1 mM TCEP, final pH 7.5. […] The peptide concentration was determined by measuring the absorbance at 483 nm and using a molar extinction coefficient of 68,000 M^-1cm^-1. […] The resulting isotherms were analysed in SEDPHAT. […]

[2] = system: wild-type and mutant KLC2^TPR-myc; assay: ITC with wild-type and/or TPR1-mutant KLC2^TPR-myc (collective statements); assay type: binding, murine; conditions: all three mutations in TPR1 of KLC2^TPR-myc; ITC
Method: The Trp-JIP3^LZ protein used for CD and ITC experiments was prepared as described above for the JIP3^LZ, with the following modifications. Following 3C cleavage, contaminating GST3C was removed by incubation of the eluate with fresh, pre-equilibrated glutathione sepharose 4B resin for 2 hours at room temperature. The Trp-JIP3^LZ was then further purified by size exclusion chromatography using a Superdex 75 16/600 column equilibrated in 100 mM NaCl, 25 mM HEPES, 1 mM TCEP (final pH 7.5). Wild-type/mutant KLC2^TPR-myc samples used for CD and ITC experiments were prepared as described above the KLC2^TPR used in crystallographic studies. The Trp-JIP3^LZ and KLC2^TPR-myc samples used in the fluorescence anisotropy-based binding competition assays were prepared as for those used in the CD and ITC studies, but the final size-exclusion step was performed in 100 mM NaCl, 25 mM HEPES, 5mM MgCl2, 1 mM TCEP (final pH 7.5).
as §1

KLC2^TPR-myc = molecular target: T1, KLC2^TPR-myc (Mus musculus, UniProt O88448); assay: Fluorescence anisotropy-based binding competition against FITC-LFP motif peptide; parameters: species or system murine; conditions: FITC-LFP peptide 300 nM, KLC2^TPR-myc 21 μM, Trp-JIP3^LZ two independent experiments, CSTN-WD1 one experiment
T1 construct: comprised murine KLC2 residues 191-480; His6-SUMO (N, cleaved yes); made in house; host or cells: E. coli BL21(DE3) Rosetta
T1 sequence (O88448 191-480): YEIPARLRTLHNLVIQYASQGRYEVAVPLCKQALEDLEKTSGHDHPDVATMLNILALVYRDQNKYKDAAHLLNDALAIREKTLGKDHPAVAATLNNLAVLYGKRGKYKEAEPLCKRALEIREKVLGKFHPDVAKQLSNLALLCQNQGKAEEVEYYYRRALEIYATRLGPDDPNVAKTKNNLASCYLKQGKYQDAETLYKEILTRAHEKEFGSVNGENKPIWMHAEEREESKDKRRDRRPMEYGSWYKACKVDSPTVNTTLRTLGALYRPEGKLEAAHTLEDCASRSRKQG
Excerpt: Kinesin-1 activation by JIP3 requires JIP3^LZ binding to KLC^TPR ([Watt et al., 2015]). How does JIP3^LZ binding to the KLC^TPR relieve KLC regulation of the kinesin-1 molecule? Tryptophan-acidic cargoes activate kinesin-1 by releasing the KLC LFP motif from the KLC^TPR ([Yip et al., 2016]). […] We therefore wondered whether JIP3^LZ binding to the KLC2^TPR allosterically regulates interactions between KLC2^TPR and the LFP motif. We investigated this using an in vitro, fluorescence anisotropy-based binding competition assay with purified proteins and peptides ([Yip et al., 2016]). […] Thus, JIP3 activates kinesin-1 by a different mechanism to tryptophan-acidic cargoes.
The binding affinity between the FITC-labelled LFP-motif peptide and the KLC2^TPR-myc was measured essentially as described previously ([Yip et al., 2016]). FITC-labelled LFP motif peptide (300 nM) was incubated with 2-fold dilutions of KLC2^TPR-myc in assay buffer (0.1 M NaCl, 25 mM HEPES, 5 mM MgCl2, 1 mM TCEP, final pH 7.5) in triplicate in 384-well plates, for 1 hour at room temperature. Fluorescence measurements were recorded on a TecanSpark plate reader at excitation and emission wavelengths of 488 nm and 535 nm respectively. Fluorescence anisotropy values were calculated at each KLC2^TPR-myc concentration and the data were fitted with a fixed-slope dose response curve in Prism (GraphPad). […]

CD spectroscopy = assay type: physicochemical; conditions: 20°C, 20 mM potassium phosphate pH 7.5, 0.5 mM DTT
Method: All CD spectra were recorded on a Chirascan CD spectrometer (Applied Photophysics) in quartz cuvettes with a 0.1 cm path length. Data were recorded at 20°C between 260 - 180 nm in 1 nm increments and a 2 nm bandwidth over an average of two scans. The KLC2^TPR-myc and Trp-JIP3^LZ proteins were dialysed extensively into 20 mM potassium phosphate pH 7.5, 0.5 mM DTT. Spectra were collected from KLC2^TPR-myc samples at concentrations of 0.29, 0.14 and 0.086 mg/ml. Trp-JIP3^LZ spectra were collected at 0.15, 0.074 and 0.044 mg/ml. One spectrum was recorded for each sample at each concentration and background-corrected by subtraction of a buffer-only spectrum. Corrected spectra were converted to units of mean residue ellipticity and deconvolved using the Dichroweb server ([Whitmore and Wallace, 2008]). KLC2^TPR-myc and Trp-JIP3^LZ spectra were analysed using the SELCON3 and CONTIN algorithms, respectively, using reference dataset set 4 ([Sreerama et al., 1999], [van Stokkum et al., 1990]). For each protein, the mean percentage of each secondary structure type, and the corresponding standard deviation, was calculated from the values obtained from the three concentrations. The secondary structure content for KLC2^TPR-myc and Trp-JIP3^LZ were calculated using the KLC2^TPR:JIP3^LZ crystal structure using the STRIDE server (http://webclu.bio.wzw.tum.de/cgi-bin/stride/stridecgi.py) ([Frishman and Argos, 1995]).

- binding to Arg^312Glu mutant [1]: retained the ability to bind
- effect of the three TPR1 mutations on binding [2]: completely abrogated binding
- effect on binding of KLC2^TPR-myc to FITC-labeled LFP motif peptide (KLC2^TPR-myc): no effect
B1: Trp-JIP3^LZ: JIP3^LZ construct N-terminally fused to a tryptophan residue (protein)
chain: WMGKEVGNLLLENSQLLETKNALNVVKNDLIAKVDQLSGEQEVLKGELEAAKQAKVKLENRIKELEEELKRV
modifications: left off: GST, N-terminal, cleaved
notes: JIP3^LZ construct N-terminally fused to a tryptophan residue
- mean α-helical content (CD spectroscopy; CONTIN deconvolution, mean and SD from three concentrations (0.15, 0.074, 0.044 mg/ml)): 59% ± 3%
- ratio of ellipticities at 222 and 208 nm (CD spectroscopy; n = 3): 0.88 ± 0.01
